What was measured:
[1] = target: Human TIGIT residues 23-128 with C-terminal HIS tag (human) (UniProt Q495A1); test: SPR, amine coupling, pH 7.4 against pH 6.0
[2] = target: Human TIGIT residues 23-128 LEU73A mutant (human) (UniProt Q495A1); test: SPR, capture immobilization, TIGIT alanine mutants
[3] = target: Human TIGIT residues 23-128 ILE68A mutant (human) (UniProt Q495A1); test: SPR, capture immobilization, TIGIT alanine mutants
[4] = target: Human TIGIT residues 23-128 LEU73A/HIS76A double mutant (human) (UniProt Q495A1); test: SPR, capture immobilization, TIGIT alanine mutants
Human TIGIT residues 23-128 LEU73A/HIS76A double mutant (human), sequence (Q495A1 other isoform, or with tags, fused parts or gaps mutant, form in doubt): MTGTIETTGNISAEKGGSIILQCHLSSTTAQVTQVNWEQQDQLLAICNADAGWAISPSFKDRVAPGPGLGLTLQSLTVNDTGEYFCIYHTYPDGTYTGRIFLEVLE

[5] = target: Human TIGIT residues 23-128 PRO79A mutant (human) (UniProt Q495A1); test: SPR, capture immobilization, TIGIT alanine mutants
Human TIGIT residues 23-128 PRO79A mutant (human), sequence (Q495A1 other isoform, or with tags, fused parts or gaps mutant, form in doubt): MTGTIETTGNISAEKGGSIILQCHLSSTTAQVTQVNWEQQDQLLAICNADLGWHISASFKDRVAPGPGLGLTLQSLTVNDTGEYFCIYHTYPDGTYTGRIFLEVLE

[6] = target: Human TIGIT residues 23-128 ASP63A mutant (human) (UniProt Q495A1); test: SPR, capture immobilization, TIGIT alanine mutants
Human TIGIT residues 23-128 ASP63A mutant (human), sequence (Q495A1 other isoform, or with tags, fused parts or gaps mutant, form in doubt): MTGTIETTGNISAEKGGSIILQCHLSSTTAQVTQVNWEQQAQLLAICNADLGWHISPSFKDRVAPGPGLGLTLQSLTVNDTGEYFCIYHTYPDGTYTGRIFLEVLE

[7] = target: Human TIGIT residues 23-128 HIS76A mutant (human) (UniProt Q495A1); test: SPR, capture immobilization, TIGIT alanine mutants
Human TIGIT residues 23-128 HIS76A mutant (human), sequence (Q495A1 other isoform, or with tags, fused parts or gaps mutant, form in doubt): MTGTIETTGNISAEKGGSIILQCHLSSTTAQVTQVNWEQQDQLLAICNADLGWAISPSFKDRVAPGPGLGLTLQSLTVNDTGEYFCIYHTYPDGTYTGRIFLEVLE

Human TIGIT residues 23-128 ILE68A mutant (human), sequence (Q495A1 other isoform, or with tags, fused parts or gaps mutant, form in doubt): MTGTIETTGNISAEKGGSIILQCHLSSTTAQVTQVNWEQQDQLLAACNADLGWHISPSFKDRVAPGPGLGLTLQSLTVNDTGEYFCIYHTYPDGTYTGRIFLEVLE
Human TIGIT residues 23-128 with C-terminal HIS tag (human), sequence (Q495A1 23-128, form in doubt): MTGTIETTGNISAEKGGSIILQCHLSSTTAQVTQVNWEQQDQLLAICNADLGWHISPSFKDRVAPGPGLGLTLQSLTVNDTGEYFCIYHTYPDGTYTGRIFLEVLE
Human TIGIT residues 23-128 LEU73A mutant (human), sequence (Q495A1 other isoform, or with tags, fused parts or gaps mutant, form in doubt): as the sequence (Q495A1 23-128, form in doubt) above, with L51A counted along it

Substance: A1217 (Ociperlimab) (antibody)
- fold increase of binding affinity (KD) from pH 7.4 to pH 6.0 [1]: 17 fold
- fold reduction in binding affinity against WT TIGIT [2]: 7 fold
- fold decrease in binding affinity against WT TIGIT [3]: 30 fold
- fold reduction of binding against wild-type TIGIT [3]: > 10 fold
- fold reduction of binding against wild-type TIGIT [4]: > 10 fold
- fold lower binding affinity against WT TIGIT [5]: 3 fold
- fold decrease in binding affinity against WT TIGIT [6]: 7 fold
- fold reduction of binding against wild-type TIGIT [7]: > 10 fold

Reference: EP4554620A1
